Columns and labels:
Test in all cases: Kinase Profiling Assay
Format in all cases: biochemical
Settings in all cases: 100 μM
JAK3(h) = target: T1, JAK3(h) (Homo sapiens, UniProt P52333)
T1 sequence (P52333 1-1124): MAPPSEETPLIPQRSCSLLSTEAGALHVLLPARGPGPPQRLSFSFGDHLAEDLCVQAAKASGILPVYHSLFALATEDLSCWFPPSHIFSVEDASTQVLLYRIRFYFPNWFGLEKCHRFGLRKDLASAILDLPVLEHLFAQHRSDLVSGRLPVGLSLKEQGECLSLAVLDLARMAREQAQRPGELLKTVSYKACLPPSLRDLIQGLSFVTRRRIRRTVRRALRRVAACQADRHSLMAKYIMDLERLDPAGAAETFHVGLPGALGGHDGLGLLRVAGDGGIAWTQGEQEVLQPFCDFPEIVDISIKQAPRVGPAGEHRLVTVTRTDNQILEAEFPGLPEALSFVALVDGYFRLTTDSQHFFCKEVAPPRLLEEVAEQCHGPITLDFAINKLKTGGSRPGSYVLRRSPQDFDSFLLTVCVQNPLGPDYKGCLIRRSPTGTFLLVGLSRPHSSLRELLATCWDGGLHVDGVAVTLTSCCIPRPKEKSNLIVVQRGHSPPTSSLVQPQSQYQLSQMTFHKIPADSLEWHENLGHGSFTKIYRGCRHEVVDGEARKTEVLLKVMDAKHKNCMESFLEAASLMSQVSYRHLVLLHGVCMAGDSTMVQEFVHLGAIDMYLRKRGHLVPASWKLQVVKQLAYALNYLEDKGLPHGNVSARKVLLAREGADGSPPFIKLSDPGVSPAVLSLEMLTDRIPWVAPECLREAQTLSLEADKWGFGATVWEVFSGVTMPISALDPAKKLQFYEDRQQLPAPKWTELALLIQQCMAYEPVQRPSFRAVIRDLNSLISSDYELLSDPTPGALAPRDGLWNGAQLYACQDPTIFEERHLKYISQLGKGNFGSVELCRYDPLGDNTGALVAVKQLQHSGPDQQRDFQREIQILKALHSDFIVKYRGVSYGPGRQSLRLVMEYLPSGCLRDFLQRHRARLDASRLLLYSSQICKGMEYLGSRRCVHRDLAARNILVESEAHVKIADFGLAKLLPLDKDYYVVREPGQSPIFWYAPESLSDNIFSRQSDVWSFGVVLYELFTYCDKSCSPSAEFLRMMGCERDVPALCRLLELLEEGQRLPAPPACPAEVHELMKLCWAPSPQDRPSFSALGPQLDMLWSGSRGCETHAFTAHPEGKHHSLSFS

PDGFRα(D842V)(h) = PDGFRα(D842V)(h) (Homo sapiens, UniProt P16234, D842V)
Chain of PDGFRα(D842V)(h) (P16234 24-1089 D842V): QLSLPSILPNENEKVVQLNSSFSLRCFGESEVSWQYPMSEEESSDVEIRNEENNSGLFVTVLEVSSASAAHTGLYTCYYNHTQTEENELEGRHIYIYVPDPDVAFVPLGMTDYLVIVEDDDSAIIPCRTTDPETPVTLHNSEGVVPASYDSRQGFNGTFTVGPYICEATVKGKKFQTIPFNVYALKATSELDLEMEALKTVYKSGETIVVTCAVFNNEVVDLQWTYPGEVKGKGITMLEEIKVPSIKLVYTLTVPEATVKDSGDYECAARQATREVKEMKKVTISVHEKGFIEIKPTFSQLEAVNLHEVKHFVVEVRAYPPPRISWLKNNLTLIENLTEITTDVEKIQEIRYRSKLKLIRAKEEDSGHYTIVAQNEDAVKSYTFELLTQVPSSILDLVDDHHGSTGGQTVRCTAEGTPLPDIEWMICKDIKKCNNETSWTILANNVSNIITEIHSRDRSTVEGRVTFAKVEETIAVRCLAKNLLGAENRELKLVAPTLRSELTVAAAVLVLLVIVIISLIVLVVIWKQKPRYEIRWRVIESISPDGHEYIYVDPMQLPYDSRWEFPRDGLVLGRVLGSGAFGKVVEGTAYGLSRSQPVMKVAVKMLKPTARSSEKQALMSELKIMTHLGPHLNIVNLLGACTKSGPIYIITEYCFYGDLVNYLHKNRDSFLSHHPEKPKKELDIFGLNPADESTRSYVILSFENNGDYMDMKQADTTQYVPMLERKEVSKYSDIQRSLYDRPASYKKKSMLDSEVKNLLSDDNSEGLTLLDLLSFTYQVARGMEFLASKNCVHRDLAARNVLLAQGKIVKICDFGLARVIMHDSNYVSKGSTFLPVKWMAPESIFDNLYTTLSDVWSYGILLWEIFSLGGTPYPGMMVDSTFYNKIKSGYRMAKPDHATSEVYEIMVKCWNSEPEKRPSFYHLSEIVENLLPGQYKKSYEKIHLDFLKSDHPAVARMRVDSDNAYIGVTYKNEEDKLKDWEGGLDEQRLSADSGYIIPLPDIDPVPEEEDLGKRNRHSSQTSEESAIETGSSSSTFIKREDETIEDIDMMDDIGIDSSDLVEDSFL

cKit(V560G)(h) = cKit(V560G)(h) (Homo sapiens, UniProt P10721, V560G)
c-RAF(h) = c-RAF(h) (Homo sapiens, UniProt P04049)
Aurora-A(h) = target: T2, Aurora-A(h) (Homo sapiens, UniProt O14965)
T2 sequence (O14965 1-403): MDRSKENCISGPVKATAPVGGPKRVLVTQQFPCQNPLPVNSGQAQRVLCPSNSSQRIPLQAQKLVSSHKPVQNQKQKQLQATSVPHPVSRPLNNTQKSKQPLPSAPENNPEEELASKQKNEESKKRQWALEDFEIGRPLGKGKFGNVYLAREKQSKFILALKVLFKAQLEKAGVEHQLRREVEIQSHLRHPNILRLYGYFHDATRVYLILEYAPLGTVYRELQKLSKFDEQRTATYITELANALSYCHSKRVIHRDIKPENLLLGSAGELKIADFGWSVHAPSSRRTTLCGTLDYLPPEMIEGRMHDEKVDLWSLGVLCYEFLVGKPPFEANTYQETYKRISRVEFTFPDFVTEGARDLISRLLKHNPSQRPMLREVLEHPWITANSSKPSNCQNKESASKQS

CK1γ1(h) = CK1γ1(h) (Homo sapiens, UniProt Q9HCP0)
Chain of CK1γ1(h) (Q9HCP0 whole entry): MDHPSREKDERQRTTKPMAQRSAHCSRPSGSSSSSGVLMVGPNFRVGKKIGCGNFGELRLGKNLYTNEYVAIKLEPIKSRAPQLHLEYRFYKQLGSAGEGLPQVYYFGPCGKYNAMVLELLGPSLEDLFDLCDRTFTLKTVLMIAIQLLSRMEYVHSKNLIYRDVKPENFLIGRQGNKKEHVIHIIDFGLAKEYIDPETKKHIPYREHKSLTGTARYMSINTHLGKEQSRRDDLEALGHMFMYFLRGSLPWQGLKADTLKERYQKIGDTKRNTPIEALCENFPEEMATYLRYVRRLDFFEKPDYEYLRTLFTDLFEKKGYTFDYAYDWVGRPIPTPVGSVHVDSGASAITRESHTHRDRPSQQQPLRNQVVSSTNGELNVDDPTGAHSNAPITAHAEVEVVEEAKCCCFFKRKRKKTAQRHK

CK2α2(h) = CK2α2(h) (Homo sapiens, UniProt P19784)
Chain of CK2α2(h) (P19784 whole entry): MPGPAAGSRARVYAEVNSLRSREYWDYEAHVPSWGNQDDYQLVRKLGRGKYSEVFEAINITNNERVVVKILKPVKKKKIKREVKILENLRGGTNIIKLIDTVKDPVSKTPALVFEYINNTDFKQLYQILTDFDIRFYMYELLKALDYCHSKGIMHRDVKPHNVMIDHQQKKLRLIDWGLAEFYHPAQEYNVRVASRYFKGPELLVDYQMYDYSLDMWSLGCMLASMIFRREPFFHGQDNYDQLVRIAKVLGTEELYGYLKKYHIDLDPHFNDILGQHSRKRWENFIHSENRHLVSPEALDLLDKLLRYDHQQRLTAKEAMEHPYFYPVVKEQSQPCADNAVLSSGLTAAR

GRK5(h) = GRK5(h) (Homo sapiens, UniProt P34947)
Chain of GRK5(h) (P34947 whole entry): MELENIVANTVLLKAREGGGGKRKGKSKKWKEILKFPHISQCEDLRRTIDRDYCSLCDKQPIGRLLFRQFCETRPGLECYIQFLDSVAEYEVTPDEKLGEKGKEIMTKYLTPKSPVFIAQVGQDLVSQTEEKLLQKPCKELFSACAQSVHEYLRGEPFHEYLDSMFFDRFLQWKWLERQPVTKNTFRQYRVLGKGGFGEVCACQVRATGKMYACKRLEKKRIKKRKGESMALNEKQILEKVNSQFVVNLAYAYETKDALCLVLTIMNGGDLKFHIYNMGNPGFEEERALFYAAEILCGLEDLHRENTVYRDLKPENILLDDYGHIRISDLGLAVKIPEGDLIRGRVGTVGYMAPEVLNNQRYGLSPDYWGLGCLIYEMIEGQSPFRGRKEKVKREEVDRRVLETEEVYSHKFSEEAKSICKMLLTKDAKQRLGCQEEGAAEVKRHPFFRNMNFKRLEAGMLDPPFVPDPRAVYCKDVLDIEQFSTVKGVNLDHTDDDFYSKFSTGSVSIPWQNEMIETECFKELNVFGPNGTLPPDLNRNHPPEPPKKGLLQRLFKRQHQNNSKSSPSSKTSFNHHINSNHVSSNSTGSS

CLK2(h) = CLK2(h) (Homo sapiens, UniProt P49760)
Chain of CLK2(h) (P49760 whole entry): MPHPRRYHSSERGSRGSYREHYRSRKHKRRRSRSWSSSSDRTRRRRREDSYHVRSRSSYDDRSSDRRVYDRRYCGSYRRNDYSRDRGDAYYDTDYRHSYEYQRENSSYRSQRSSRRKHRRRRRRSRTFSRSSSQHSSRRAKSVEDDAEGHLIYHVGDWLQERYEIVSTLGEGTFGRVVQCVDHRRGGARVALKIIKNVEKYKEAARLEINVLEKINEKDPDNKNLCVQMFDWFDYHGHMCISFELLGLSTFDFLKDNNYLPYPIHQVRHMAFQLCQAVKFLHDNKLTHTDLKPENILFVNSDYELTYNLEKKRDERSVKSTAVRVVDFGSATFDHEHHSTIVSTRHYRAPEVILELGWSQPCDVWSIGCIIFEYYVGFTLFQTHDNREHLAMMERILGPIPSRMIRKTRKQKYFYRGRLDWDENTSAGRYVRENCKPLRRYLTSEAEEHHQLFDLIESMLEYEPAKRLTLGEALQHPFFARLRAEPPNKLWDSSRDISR

Plk1(h) = Plk1(h) (Homo sapiens, UniProt P53350)
Chain of Plk1(h) (P53350 whole entry): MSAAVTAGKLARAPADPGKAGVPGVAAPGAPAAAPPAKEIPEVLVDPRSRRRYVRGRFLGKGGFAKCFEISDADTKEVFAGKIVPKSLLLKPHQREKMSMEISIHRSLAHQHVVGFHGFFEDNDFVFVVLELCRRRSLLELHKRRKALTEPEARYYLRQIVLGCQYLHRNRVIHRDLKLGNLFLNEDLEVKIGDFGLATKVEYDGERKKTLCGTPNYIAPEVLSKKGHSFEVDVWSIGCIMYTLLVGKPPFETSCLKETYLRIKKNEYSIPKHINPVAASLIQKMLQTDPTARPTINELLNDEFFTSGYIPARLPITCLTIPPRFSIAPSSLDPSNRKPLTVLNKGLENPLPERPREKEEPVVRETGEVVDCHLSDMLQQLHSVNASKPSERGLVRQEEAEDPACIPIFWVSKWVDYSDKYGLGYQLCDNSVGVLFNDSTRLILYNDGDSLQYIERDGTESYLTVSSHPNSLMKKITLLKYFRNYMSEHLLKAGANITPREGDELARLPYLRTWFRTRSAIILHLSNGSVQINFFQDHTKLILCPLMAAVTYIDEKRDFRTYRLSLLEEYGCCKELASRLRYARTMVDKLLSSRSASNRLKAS

MKK7β(h) = target: T3, MKK7β(h) (Homo sapiens, UniProt O14733)
T3 sequence (O14733 1-419): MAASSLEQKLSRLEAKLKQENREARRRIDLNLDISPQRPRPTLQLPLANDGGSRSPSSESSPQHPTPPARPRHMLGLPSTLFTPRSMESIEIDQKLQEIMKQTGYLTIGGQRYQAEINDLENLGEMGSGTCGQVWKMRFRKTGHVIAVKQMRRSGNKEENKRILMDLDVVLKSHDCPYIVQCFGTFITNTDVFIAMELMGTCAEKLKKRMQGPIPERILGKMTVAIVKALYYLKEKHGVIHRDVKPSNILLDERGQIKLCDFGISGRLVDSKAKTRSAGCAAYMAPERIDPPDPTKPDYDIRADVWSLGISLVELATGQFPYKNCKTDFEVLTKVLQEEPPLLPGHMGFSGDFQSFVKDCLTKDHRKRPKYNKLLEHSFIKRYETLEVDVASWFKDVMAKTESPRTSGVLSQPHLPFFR

PAK6(h) = PAK6(h) (Homo sapiens, UniProt Q9NQU5)
Chain of PAK6(h) (Q9NQU5 whole entry): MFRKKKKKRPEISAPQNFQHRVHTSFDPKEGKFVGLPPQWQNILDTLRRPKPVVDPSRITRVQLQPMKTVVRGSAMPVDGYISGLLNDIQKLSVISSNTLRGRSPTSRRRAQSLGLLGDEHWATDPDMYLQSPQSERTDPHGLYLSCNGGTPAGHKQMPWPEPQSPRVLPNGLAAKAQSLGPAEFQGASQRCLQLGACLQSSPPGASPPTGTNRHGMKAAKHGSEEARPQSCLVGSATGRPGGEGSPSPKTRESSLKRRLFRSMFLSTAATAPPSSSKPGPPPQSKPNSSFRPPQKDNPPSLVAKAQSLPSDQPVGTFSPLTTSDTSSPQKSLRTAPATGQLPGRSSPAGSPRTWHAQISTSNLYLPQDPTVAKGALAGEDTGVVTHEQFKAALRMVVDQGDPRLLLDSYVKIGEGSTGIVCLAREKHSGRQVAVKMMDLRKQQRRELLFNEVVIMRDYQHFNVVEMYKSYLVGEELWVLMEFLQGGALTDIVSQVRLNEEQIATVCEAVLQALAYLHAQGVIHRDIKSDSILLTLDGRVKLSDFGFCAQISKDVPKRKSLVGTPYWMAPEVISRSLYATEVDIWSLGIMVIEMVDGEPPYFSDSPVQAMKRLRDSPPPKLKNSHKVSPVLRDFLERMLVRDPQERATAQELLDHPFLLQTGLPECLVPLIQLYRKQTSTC

CK1γ2(h) = CK1γ2(h) (Homo sapiens, UniProt P78368)
Chain of CK1γ2(h) (P78368 whole entry): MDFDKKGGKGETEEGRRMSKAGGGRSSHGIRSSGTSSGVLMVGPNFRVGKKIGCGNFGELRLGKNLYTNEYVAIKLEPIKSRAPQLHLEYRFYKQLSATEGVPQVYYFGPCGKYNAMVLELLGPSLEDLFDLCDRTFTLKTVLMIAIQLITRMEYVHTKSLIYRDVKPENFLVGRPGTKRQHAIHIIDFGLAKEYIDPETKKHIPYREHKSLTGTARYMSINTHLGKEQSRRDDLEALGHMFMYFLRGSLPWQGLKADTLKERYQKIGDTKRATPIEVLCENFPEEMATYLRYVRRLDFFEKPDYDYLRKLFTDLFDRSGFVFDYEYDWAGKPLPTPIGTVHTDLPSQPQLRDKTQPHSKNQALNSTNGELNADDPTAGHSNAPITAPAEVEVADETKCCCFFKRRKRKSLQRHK

Row | Sequence | % activity (JAK3(h)) [%] | % activity (PDGFRα(D842V)(h)) [%] | % activity (cKit(V560G)(h)) [%] | % activity (c-RAF(h)) [%] | % activity (Aurora-A(h)) [%] | % activity (CK1γ1(h)) [%] | % activity (CK2α2(h)) [%] | % activity (GRK5(h)) [%] | % activity (CLK2(h)) [%] | % activity (Plk1(h)) [%] | % activity (MKK7β(h)) [%] | % activity (PAK6(h)) [%] | % activity (CK1γ2(h)) [%]
1 | HRRIKAWLKKIKALARQLGVAA [MMI-0500] | 95 | 170 | 198 | 19 | 110 | – | – | – | – | – | – | – | –
2 | YARAAARQARAKALNRQLGVA [MMI-0200] | – | – | – | – | – | 98 | 88 | 135 | 97 | 128 | – | – | –
3 | KAFAKLAARLYRKALARQLGVAA [MMI-0400] | 122 | 118 | 124 | – | – | – | 96 | 131 | – | – | 94 | 100 | –
4 | FAKLAARLYRKALARQLGVAA [MMI-0300] | – | – | – | – | 92 | – | – | – | – | – | 100 | – | 123
